Results reported in paper PMC6753376 (Molecular Systems Biology, 2019).
One block for each molecule: values may come before it.

What was measured:
C3b (human) = C3b (human) (UniProt P01024); assay: cross-linking; quantitative cross-linking mass spectrometry (QCLMS) of C3b alone; C3b monomer and dimer labelled as in Chen et al, 2016c, in-gel digested with trypsin, then sequential digestion
Mcm2 = molecular target: T1, Mcm2 (S. cerevisiae, UniProt P29469 1-868); assay: cross-linking; BS3 cross-linking of 200 ug OCCM complex on pUC19-ARS1 beads, 1:8,100 protein to crosslinker molar ratio, 2 h on ice; sequential digestion, SEC, LC-MS/MS, xiSEARCH, 5% FDR; conditions: both partners purified
T1 construct: Mcm2, S. cerevisiae, subunit of MCM2-7 in the OCCM complex; the search database held all 14 OCCM subunits; source: in the OCCM complex assembled on pUC19-ARS1 beads as described elsewhere (Evrin et al, 2009)
T1 sequence (looked up): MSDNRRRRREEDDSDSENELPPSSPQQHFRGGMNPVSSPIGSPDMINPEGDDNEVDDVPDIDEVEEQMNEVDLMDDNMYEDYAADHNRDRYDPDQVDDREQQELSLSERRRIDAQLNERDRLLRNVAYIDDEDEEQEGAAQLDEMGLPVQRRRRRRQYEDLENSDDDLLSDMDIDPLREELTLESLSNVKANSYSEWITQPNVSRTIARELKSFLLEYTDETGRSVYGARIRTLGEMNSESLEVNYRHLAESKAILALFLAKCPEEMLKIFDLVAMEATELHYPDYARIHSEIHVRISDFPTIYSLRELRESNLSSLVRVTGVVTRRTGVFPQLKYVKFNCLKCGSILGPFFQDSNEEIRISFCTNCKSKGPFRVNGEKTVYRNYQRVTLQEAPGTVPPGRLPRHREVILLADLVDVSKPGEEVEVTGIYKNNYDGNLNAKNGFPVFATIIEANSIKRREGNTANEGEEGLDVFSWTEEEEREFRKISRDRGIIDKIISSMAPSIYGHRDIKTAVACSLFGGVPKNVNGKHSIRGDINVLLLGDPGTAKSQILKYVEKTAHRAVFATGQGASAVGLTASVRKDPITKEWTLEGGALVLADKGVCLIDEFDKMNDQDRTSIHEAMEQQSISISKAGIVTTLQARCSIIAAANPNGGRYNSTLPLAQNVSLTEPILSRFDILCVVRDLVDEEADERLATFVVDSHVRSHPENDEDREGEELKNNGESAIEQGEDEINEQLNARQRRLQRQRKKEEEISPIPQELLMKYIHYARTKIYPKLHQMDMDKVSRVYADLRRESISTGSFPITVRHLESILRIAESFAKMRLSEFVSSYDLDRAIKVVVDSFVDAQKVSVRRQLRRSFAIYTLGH

Mcm6 = molecular target: T2, Mcm6 (S. cerevisiae, UniProt P53091 1-1017); assay: as above; conditions: both partners purified
T2 construct: Mcm6, S. cerevisiae, subunit of MCM2-7 in the OCCM complex; source: in the OCCM complex assembled on pUC19-ARS1 beads as described elsewhere (Evrin et al, 2009)
T2 sequence (P53091 whole entry): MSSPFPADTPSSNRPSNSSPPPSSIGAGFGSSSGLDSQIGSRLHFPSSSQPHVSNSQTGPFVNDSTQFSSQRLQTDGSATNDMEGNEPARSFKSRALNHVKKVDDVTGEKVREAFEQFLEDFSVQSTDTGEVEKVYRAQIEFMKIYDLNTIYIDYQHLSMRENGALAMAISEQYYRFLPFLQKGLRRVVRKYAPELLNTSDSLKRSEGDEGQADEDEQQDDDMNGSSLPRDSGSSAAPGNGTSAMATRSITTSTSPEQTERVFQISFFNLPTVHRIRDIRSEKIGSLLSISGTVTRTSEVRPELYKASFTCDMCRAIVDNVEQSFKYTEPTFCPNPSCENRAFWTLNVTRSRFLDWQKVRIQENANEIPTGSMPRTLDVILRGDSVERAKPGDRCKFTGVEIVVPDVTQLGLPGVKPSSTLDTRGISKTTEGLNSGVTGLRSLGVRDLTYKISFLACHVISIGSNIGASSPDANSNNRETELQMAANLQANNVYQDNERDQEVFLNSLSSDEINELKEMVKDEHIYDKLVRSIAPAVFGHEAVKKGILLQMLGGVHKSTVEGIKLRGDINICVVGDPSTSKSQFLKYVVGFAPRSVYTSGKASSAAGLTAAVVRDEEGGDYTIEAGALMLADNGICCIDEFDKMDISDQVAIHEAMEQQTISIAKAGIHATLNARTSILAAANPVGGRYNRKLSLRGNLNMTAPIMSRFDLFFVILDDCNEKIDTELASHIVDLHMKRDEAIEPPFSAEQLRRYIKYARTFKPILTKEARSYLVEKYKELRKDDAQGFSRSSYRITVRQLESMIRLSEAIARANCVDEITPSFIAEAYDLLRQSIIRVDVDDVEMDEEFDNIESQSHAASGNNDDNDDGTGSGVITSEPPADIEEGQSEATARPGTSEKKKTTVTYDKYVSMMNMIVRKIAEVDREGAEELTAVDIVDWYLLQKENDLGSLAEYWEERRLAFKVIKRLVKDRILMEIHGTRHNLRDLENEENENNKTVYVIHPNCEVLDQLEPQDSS

stoichiometry N (C3b (human)): 2
Molecule: C3b (from UniProt P01024 749-1663; P01024 749-1663) (natural protein)

binding result (Mcm2): binds
B1: Orc5 (natural protein, S. cerevisiae, UniProt P50874 1-479, looked up)
chain: MNVTTPEVAFREYQTNCLASYISADPDITPSNLILQGYSGTGKTYTLKKYFNANPNLHAVWLEPVELVSWKPLLQAIARTVQYKLKTLYPNIPTTDYDPLQVEEPFLLVKTLHNIFVQYESLQEKTCLFLILDGFDSLQDLDAALFNKYIKLNELLPKDSKINIKFIYTMLETSFLQRYSTHCIPTVMFPRYNVDEVSTILVMSRCGELMEDSCLRKRIIEEQITDCTDDQFQNVAANFIHLIVQAFHSYTGNDIFALNDLIDFKWPKYVSRITKENIFEPLALYKSAIKLFLSTDDNLSENGQGESAITTNRDDLENSQTYDLSIISKYLLIASYICSYLEPRYDASIFSRKTRIIQGRAAYGRRKKKEVNPRYLQPSLFAIERLLAIFQAIFPIQGKAESGSLSALREESLMKANIEVFQNLSELHTLKLIATTMNKNIDYLSPKVRWKVNVPWEIIKEISESVHFNISDYFSDIHE
notes: Orc5, S. cerevisiae, subunit of ORC in the OCCM complex; source: in the OCCM complex assembled on pUC19-ARS1 beads as described elsewhere (Evrin et al, 2009)

binding result (Mcm2): binds
B2: Orc2 (natural protein, S. cerevisiae, UniProt P32833 1-620, looked up)
chain: MLNGEDFVEHNDILSSPAKSRNVTPKRVDPHGERQLRRIHSSKKNLLERISLVGNERKNTSPDPALKPKTPSKAPRKRGRPRKIQEELTDRIKKDEKDTISSKKKRKLDKDTSGNVNEESKTSNNKQVMEKTGIKEKREREKIQVATTTYEDNVTPQTDDNFVSNSPEPPEPATPSKKSLTTNHDFTSPLKQIIMNNLKEYKDSTSPGKLTLSRNFTPTPVPKNKKLYQTSETKSASSFLDTFEGYFDQRKIVRTNAKSRHTMSMAPDVTREEFSLVSNFFNENFQKRPRQKLFEIQKKMFPQYWFELTQGFSLLFYGVGSKRNFLEEFAIDYLSPKIAYSQLAYENELQQNKPVNSIPCLILNGYNPSCNYRDVFKEITDLLVPAELTRSETKYWGNHVILQIQKMIDFYKNQPLDIKLILVVHNLDGPSIRKNTFQTMLSFLSVIRQIAIVASTDHIYAPLLWDNMKAQNYNFVFHDISNFEPSTVESTFQDVMKMGKSDTSSGAEGAKYVLQSLTVNSKKMYKLLIETQMQNMGNLSANTGPKRGTQRTGVELKLFNHLCAADFIASNEIALRSMLREFIEHKMANITKNNSGMEIIWVPYTYAELEKLLKTVLNTL
notes: Orc2, S. cerevisiae, subunit of ORC in the OCCM complex; source: in the OCCM complex assembled on pUC19-ARS1 beads as described elsewhere (Evrin et al, 2009)

binding result (Mcm6): binds
B3: Cdt1 (natural protein, S. cerevisiae, UniProt P47112 1-604, looked up)
chain: MSGTANSRRKEVLRVPVIDLNRVSDEEQLLPVVRAILLQHDTFLLKNYANKAVLDALLAGLTTKDLPDTSQGFDANFTGTLPLEDDVWLEQYIFDTDPQLRFDRKCRNESLCSIYSRLFKLGLFFAQLCVKSVVSSAELQDCISTSHYATKLTRYFNDNGSTHDGADAGATVLPTGDDFQYLFERDYVTFLPTGVLTIFPCAKAIRYKPSTMATTDNSWVSIDEPDCLLFHTGTLLARWSQGMHTTSPLQIDPRANIVSLTIWPPLTTPISSKGEGTIANHLLEQQIKAFPKVAQQYYPRELSILRLQDAMKFVKELFTVCETVLSLNALSRSTGVPPELHVLLPQISSMMKRKIVQDDILKLLTIWSDAYVVELNSRGELTMNLPKRDNLTTLTNKSRTLAFVERAESWYQQVIASKDEIMTDVPAFKINKRRSSSNSKTVLSSKVQTKSSNANALNNSRYLANSKENFMYKEKMPDSQANLMDRLRERERRSAALLSQRQKRYQQFLAMKMTQVFDILFSLTRGQPYTETYLSSLIVDSLQDSNNPIGTKEASEILAGLQGILPMDISVHQVDGGLKVYRWNSLDKNRFSKLLQIHKSKQQD
notes: Cdt1, S. cerevisiae, subunit of the OCCM complex; source: in the OCCM complex assembled on pUC19-ARS1 beads as described elsewhere (Evrin et al, 2009)
